Data: the domain aggregation screens of Martell et al. (2025)

test: soluble fraction after stress (log2 fold change); higher = more stays soluble; pooled small domains, quantitative proteomics; details: stress: 50 degC
Procedure, shortened: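 Pooled custom libraries of small protein domains were measured in a high-throughput format, with quantitative proteomics as the read-out. Each library was stressed at 50°C. Aggregation propensity is given as the base-two logarithm of the fold change in how much of each protein stays soluble after the stress. Higher values mean a larger share of the protein remains in solution.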

Compared with “HMSKININTITESELKELPISTVKQKAIQDYLIDRGFISNIYDLLDIKEITSDDVSLLKKVVNVKLPY”, “HMLLFSVADIVKRSKRILSFKTDAELAAYFGVSRSTLSNWIARNSIDFPLLLSKMKDVDYTWLILGKGTPG” is lower in “soluble fraction (log2)” value: -0.218 for the first, -3.97 for the second.

“HMSESEDFQNRWRPWRSLLDDETPVVREALVDQLKLFPEEGRLFLQQMSEEDDPISARHAFELIKSLGW” and “HMDPLGHVIKKKRLQLGMTLRDLAAKAGVHHATIDRIETDQFKVVDPSTLVKIAEALHLDQLYLLSLN” are within 0.2 log units of each other in “soluble fraction (log2)” value: -0.132 for the first, -0.0139 for the second.

First: HMNENDENLRQQAIDASKEVRRWGEPVTLPPMNAHDRRIIHITLEGESDLQTESTGEGNFKSVVISLK
Second: HMSSKAVLEKFEALFIDQMLQSMRKATVRSELFDSEGIKLYESLFDKEISEELAKSGGLGLTKDLEQQL
The “soluble fraction (log2)” value of the first is higher: -0.111 for the first, -0.888 for the second.

Going from “HMANVQLAKNLKTLRKKYNYTQQDVSTFLNITRQAYSHYEQALREPDLNTLVHLSRFYQVTLDELI” to “HMPMTRILFLPDDRTILQFDSAEPAEDLVSAVNAGRWLPPEPYRSGFGLGLPENRLRASRQGALVVVMLS”, the “soluble fraction (log2)” value rises from -3.8 to -0.967.

Compared with “HMKEPGFAPPVRALAAAPITVLAQVAGTNPGEIRARLRAAGYPVASDQQSVQSLVGGDLKAQIGVLNRILA”, “HMHAPRIEVVQIDPEKIGALIGPGGKNIRRITEVTGANLDIDEDNSGKIRVYASDSEAMNRALQEIDLVT” is higher in “soluble fraction (log2)” value: -0.00802 for the first, 0.193 for the second.

“HMEPEVSNTYEKVLGMHHFSSTRSHQLHDLVRQANALELSLGEIESIAQSAKDGAQVISDIKHWMEPNRQ” and “HMDSNISVSEALEMVDKGSVKEIIVEGEKLYITNQDGKQYTSSKEVGVSLIELMKDSGIDPIKSDVNIIVK” are within 0.2 log units of each other in “soluble fraction (log2)” value: 0.266 for the first, 0.214 for the second.

Compared with “HMEMKHKNSQIFQAIKLKHMGFTPTQISEELRVSRTTINHWLTKAQLKDVKWEDIRENSADELVKLLFG”, “HMSLYGGYEIDIIKEEVVDAGIKLLRRRVIVADQRGISVYEGKPTFASDDQVLIKEGQYQIDKLG” is lower in “soluble fraction (log2)” value: -0.229 for the first, -2.63 for the second.

“HMVTLQEVKQYLRIDFEEEDPLLLSLLATAKQQVMNVGRMDEAQLSEHEDTARTAILYAVSYLYENRN” and “HMGRKPATTIPLQVRNAVLDLYRTKYYGANFQHYTELLHEHEGIRISTSSVAKILEAEYILSPK” are within 0.2 log units of each other in “soluble fraction (log2)” value: -1.85 for the first, -1.69 for the second.

Compared with “HMKPVSEMDNMEWVREQYFQNMIYEIGEWVKDKKTGIVGEIVKRGTNYVTIVQEDFSLHKIWLEDLETTE”, “HMNAKNPRALAIQYVFKMQMGNFLHAKTDNQQQEQERIMTLFNEENKNTILPRWGKELLSYINRN” is lower in “soluble fraction (log2)” value: -0.325 for the first, -0.695 for the second.

“HMVDQKLIQASAEHSGIRIDRFLSEQLPEHSRSYIQKLIKDGQVSIGGKAVKSNYKIAGTEEISLLIPDQ” and “HMSLSISSLVFFRKNAGLTQADIATAMSITQSAVARLEKRLLSDSDVTLKTLERYAEAVGIRMHVDFEP” are within 0.2 log units of each other in “soluble fraction (log2)” value: 0.0523 for the first, -0.0207 for the second.

Going from “HMSKAYLSVESNISGARVFVDGQKEGTTPLSDVLLSAGEHLILVKKQGYETYQKRVRFQKGRSMSLYVDLS” to “HMQRYYDVLGLQKGVSPEELKKTYRELSKKYHPDAHHNSPLRDLAEAKFKEINEAYEKIKEFLDNNF”, the “soluble fraction (log2)” value rises from -0.159 to 0.15.

Compared with “HMSLSKQETEFLTTFSASGKRVFTYQQATDYWQSKVAATNVLGRLVRKGWLQRLERGLYMIIPLEAGPERF”, “HMVVVPDVKGLKIEEAAEFFKNNNLHYNVIDSVFSKDVEPGAIVELSPLAGSKVKEGRIVFITVNALTS” is higher in “soluble fraction (log2)” value: -0.853 for the first, -0.651 for the second.

First: HMKGVENLSDIDIQKALNNARANLSKNKAKLEQAGDDEKKKASALAMIQKWETTKKAIEEEIEARKKKSLN
Second: HMRTVAERYGLTAGQWRVLELLTQGKTNRQIAEMLDVTEGTVKIHVSAIFKAMKVTNRTQALLLAKKH
The “soluble fraction (log2)” value of the first is higher: -0.296 for the first, -0.558 for the second.

Going from “HMELEIPGELIEAVRRLRDERQRMRLAGELAARQIQMHPERYTEASIDPVQTWDELRARILALA” to “HMIADSSSIHQDAKQQLHSYLRTNIQPLMRAGKQLDLKDILHHVTIRKPKLVQQLGMKQVQHMVQVLLD”, the “soluble fraction (log2)” value rises from -0.248 to 0.224.

“HMGIRYQLADDVTDEQITAMTGKKAKIAAAIKAAGSAVSKMNVAGEMGYDKQNPINKDFMELVDAGIIVPS” and “HMNNLLEDIKARLMAQAEAGGHIDTETELAEHFGVTRYRIRKELDLLSQMGLLRRQPKNGIEVLTV” are within 0.2 log units of each other in “soluble fraction (log2)” value: 0.00228 for the first, -0.106 for the second.

First: HMAIGSRLKVTTDATNLNIRSTPSTEGDIVGKAAHHEIVTLVEKTDDSWWKIKTNDGEEGYAYAQYLSPV
Second: HMQADTATITGNGVNMRSGPGTNYQIIDTIPKGTVAEVLSQQDGWVKIYSARISGWVSASYVEIKQT
The “soluble fraction (log2)” value of the first is higher: 0.12 for the first, -0.356 for the second.

Going from “HMAHTGGNTLTREKAVSVRSASDALLFEIHWNETPREDILSTREEKVDGKTYSIITIRTGKGREDHYYLLS” to “HMITPAARLRALKIRLSVDEVAQIVQRLVNGETVYQIGKPDTGGHAKATVGKINALRLAGQLHFL”, the “soluble fraction (log2)” value falls from -0.29 to -1.28.

First: HMAIMISINAKGEVAWNDQIISLDDLAQRFNAAGQQAQKPTVQLRADKESRYDMVAQVMSRASEAGLSDIA
Second: HMPKRSKDEAELEFLEMLRDNQVDSTWSFGKIISQLGSTDPRYWMVDDDPLWKRQIFEKYLSNR
The “soluble fraction (log2)” value of the first is lower: -0.781 for the first, -0.292 for the second.

First: HMISKYLRIESDILSAIREGRLKPGDKLPGQSEMRRIYNVSAITVRKAFTDLINDGYLVGVRGSGTYVAKR
Second: HMSAPTAFSERELELLAGMRRGASNKAMAEQLFISVNTVKYHRANLMRKLGARDRNEALEVAARLG
The “soluble fraction (log2)” value of the first is lower: -0.703 for the first, -0.0071 for the second.

First: HMEEYTVEFVKHKVKRKQTLYTISKLYNVSIDDIIKYNSQIEGFNLSRRMELNIPVKKTLIVKNE
Second: HMSQTVKYVNTTSGLNMRTGPATSYAKITTIAYGQSVNVLSTSNGWSKINYSGSTGYVSSQYLQSKKPS
The “soluble fraction (log2)” value of the first is lower: -1.7 for the first, -0.942 for the second.

First: HMSVFGDNVARLRAEHGMSQRALAERLEITNGTVAAWESRDTLPDYDRIRQIAEIFDVPIPQLFAKYIP
Second: HMSPPVIQQGQDVRLIYKGTGFAVSNEGKALNTAADGQVARARTGGGQTVSGIARPGGIIEIT
The “soluble fraction (log2)” value of the first is lower: -1.66 for the first, 0.308 for the second.

“HMSPQPPNQEAVRTRILDQAAHLFLTIGYAETTVRRIAGAVGIKAASLYHHFGSKDEVFESILIR” and “HMEIPRYRLIGADGGRMVDLGEGQGAIPPVDVKRGMIDMPGLGKGYYTADGKSAVITNADGSKTRVL” are within 0.2 log units of each other in “soluble fraction (log2)” value: 0.0413 for the first, -0.034 for the second.

First: HMISKWGELVDLAVQLDIIQKSGSWFSMGDERIGQGANSVKDYLIANPDIAEKVEAEVRENLWKLN
Second: HMGKASNEVYEVISSKIRTGEWAPGYKLPSEPTLAEEFGVSRATVREALQELISRGRIKREQGRGTYVLH
The “soluble fraction (log2)” value of the first is lower: -0.129 for the first, 0.161 for the second.

Going from “HMKNVADEVFEKMLNMIIEGDWKKGEMIPSENELREAFSVSRSTVRQAVQRLSALGIVRSRQGKGTYVEQV” to “HMADFIKEIKTNNPRQLLKSILSSFMPRALILELEMLLWNDLKSKPIGEWSNTQIENVGKLLNNWILKPAA”, the “soluble fraction (log2)” value rises from -1.04 to 0.0698.

Compared with “HMHADIAATVVATMRQLGVLGLPRNYEIFYEALSGTNRELSLAVVSLSNRPTQDDLDRIGRRFFA”, “HMQEPNYQPLMQNIKSQDLEEVTRLLSLNDVKFKIDHRTGLLLVESSRVYEAKMKLAATGITD” is higher in “soluble fraction (log2)” value: -0.785 for the first, -0.224 for the second.

Going from “HMQNNKITIYISGAVNRPGIVTIESDKRLYDAVELLGGTTKEADLNGVNLSVRLEDEQHYIIPKIGEA” to “HMNAELSTVQAAEVLNVSRPFLIKLLEDGAIPHRKVGKHRRVRMEDVMSYKAAIDTEREAVLDQLAA”, the “soluble fraction (log2)” value rises from -0.0996 to 0.123.

First: HMEIGELITLYRKQAGLTIDELSEKANVPKGTLNKIIGGITKAPTLETMRSIAYALGKKLADFDN
Second: HMIQIQDIAFSEFLQELDKGNIVEVNIKGDLINGDLINGKKFKTVAPYDPNLVEKLSKQNVRINVEPIN
The “soluble fraction (log2)” value of the first is lower: -0.34 for the first, 0.125 for the second.

Compared with “HMGPESKLTDAIKDYIYALYENLKGKSKFRNTIIEEVKKLYGVDISRESIRRVVNQKTDAETTENDDDEKA”, “HMQPDYRVLYSNFSDKDGGAIVAALEKMNVPYKFSEGGSAILVPAGQVHQARLKLAADGLPK” is lower in “soluble fraction (log2)” value: ≥ 0.62 for the first, 0.0409 for the second.

First: HMSFNGTILSNYQKTYPNLAKFTYDQANDALVYEGNFIKLNGYGLSRIDPVFFNMNPDEIFIFIKNG
Second: HMSVLNLQTDIPKKYTDVLGTSVKGRLNTLVHNVIINSVDRPVIQMSEEVHEAMQGLRIFMFENVYRNPV
The “soluble fraction (log2)” value of the first is lower: -3.51 for the first, 0.0658 for the second.

“HMVAPNSEATTKLIIEKTKYANESPAILMGFKATATMLMAKHVVLPTSKYAYFNEGRALLEKAIK” and “HMPNDYRKKLEILAKEKGAEYLHTMLTEVDPKSALQIHTNNIKRTIRALEFYHQTGMKISEHNEAEREK” are within 0.2 log units of each other in “soluble fraction (log2)” value: -0.0203 for the first, 0.0272 for the second.

“HMAQDIEQLEKAVSFYTRMDPAAAALSITNLDQKTAVNILMRMKDKQASAVLESMTAERSSELIDSIARK” and “HMSEEELETSGLVKRSAKGNLYDIFRHRVMVPIIDVRGAIIAFGGRVLDDSKPKYINSPETMVY” are within 0.2 log units of each other in “soluble fraction (log2)” value: 0.00388 for the first, 0.0208 for the second.

“HMNRKILVLLAGKEQITDNVSVMQSIHRYAFINTATINKAQHEILIEKEEIRQEALTLIHEFLK” and “HMDLTSDANLKEAKDQILNLLNDGKRHHVTEINKILLPPVQVQEALRFLIHEETVRVDASFLF” are within 0.2 log units of each other in “soluble fraction (log2)” value: -0.0593 for the first, -0.167 for the second.

Going from “HMHVYQSLVTDRVVPGGGYRTTEAILSTEAWRNTLLEQAKRELIGVRNKYASLTELAKVWTAIDTVT” to “HMKDIIVDPQGQYNHPGVPTRIPSSDITMKGVGYPVLGIADNGQKQMMQPGQDYKFPGAKYVDEYPQM”, the “soluble fraction (log2)” value rises from -0.586 to 0.137.

“HMHSPLLDRYLAEVGWRLRHLSGAQREDILAGLREHIADLESAGVAPEEIVARLGSPESVADAAAGEF” and “HMGGQKTREAIFDLIMTNSKITSAQIAEILGIHRSGVARHLKKLQEEGLIKREGPDNGGQWIVIK” are within 0.2 log units of each other in “soluble fraction (log2)” value: -0.334 for the first, -0.422 for the second.

First: HMASIGTATVTADNLRLRSEAGTGAETLTMAPKGAEVTVEEDAGDGWYKVTYGDTEGYMSGEWLKITLA
Second: HMALSSQQIKDMQSWYGTKADGIWGSKSTTAAGGRDAGAAYSLYSSNKGRYSSYTDYMSYGGG
The “soluble fraction (log2)” value of the first is lower: -0.209 for the first, 0.072 for the second.

Going from “HMDVSVPDVTGTRLDRAQSLLEAQGLTLGKVEEFFHATEPAGIVYDQEPRPGTRVDEGTAISVSVSKGPEA” to “HMVDYIGRRGVMLSTVSEEKMGNAEVVIDGNSYNIYVKSLDGSTIAYHQEILIINKSKDNNYFLVQIY”, the “soluble fraction (log2)” value falls from 0.0552 to -2.63.

“HMIYQEGMQVKYQGKEYVISEIQDYKTYKTIKLDDNEGYLNGFITGSEILSFRNESELDLEI” and “HMVKIIHYEVYANRGDGWKLVDQFSADQRQEAVNLAKEIETEDQVAVKIIREIFDVQDNTYQESVEYIG” are within 0.2 log units of each other in “soluble fraction (log2)” value: -0.314 for the first, -0.51 for the second.

For “HMKSQVVAYSDFVKAVNQKQINEVQIQGDKIRAINKAGEEITVTWLQNDQKLMDDLLDNNVKTIFLE”, the “soluble fraction (log2)” value was 0.29.
